3 molecules from article PMC3032679 (Journal of Translational Medicine, 2011) can be followed below.

Ends that are not written are not given here.

Assay [1] deals with T1, human recombinant Hsp90α (human, UniProt P07900 1-732).
T1 construct: Heat shock protein 90 alpha (Hsp90α), human, recombinant; also called heat shock protein 90; source: bought: Stressgen Bioreagents
The experiment in a line: SPR; Biacore 3000; biotin-TPR peptide immobilised on streptavidin (SA) chip; Hsp90 or Hsp70 (0.3, 1 or 2 μM) as analyte, 30 μl/min, 25°C, HBS-EP buffer pH 7.4. The conditions noted are these: both partners purified. In general terms: SPR reads the build-up and loss of mass on a sensor chip optically.

For assay [2], the target named is T1, human recombinant Hsp90α. The experiment in a line: SPR; competition; Hsp90 or Hsp70 (1 μM) preincubated with TPR peptide (14, 140 or 700 μM) passed over Hop, FKBP5 or PP5 immobilised on CM5 chip; signal without peptide = 100% binding; 25°C, HBS-EP buffer pH 7.4. The conditions noted are these: both partners purified.

B1: Biotin-conjugated TPR peptide (peptide)
peptide: KAYARIGNSYFK
modifications: also: biotin-conjugated, position not given here
notes: Immobilised on a streptavidin sensor chip by its biotin; also called biotin-TPR; immobilized TPR peptide; source: synthetic peptide
Turning to B1, the dissociation constant (Kd) (in general, the equilibrium constant for the complex coming apart) with human recombinant Hsp90α [1] worked out at 1420 nM.

B2: TPR peptide (KAYARIGNSYFK) (peptide)
peptide: KAYARIGNSYFK
notes: also called designed TPR peptide; source: synthetic peptide
Turning to B2, in the assay with human recombinant Hsp90α [2], the binding result is reported as “binds”.

B3: human recombinant PP5 (natural protein, UniProt P53041 1-499, looked up)
chain: MAMAEGERTECAEPPRDEPPADGALKRAEELKTQANDYFKAKDYENAIKFYSQAIELNPSNAIYYGNRSLAYLRTECYGYALGDATRAIELDKKYIKGYYRRAASNMALGKFRAALRDYETVVKVKPHDKDAKMKYQECNKIVKQKAFERAIAGDEHKRSVVDSLDIESMTIEDEYSGPKLEDGKVTISFMKELMQWYKDQKKLHRKCAYQILVQVKEVLSKLSTLVETTLKETEKITVCGDTHGQFYDLLNIFELNGLPSETNPYIFNGDFVDRGSFSVEVILTLFGFKLLYPDHFHLLRGNHETDNMNQIYGFEGEVKAKYTAQMYELFSEVFEWLPLAQCINGKVLIMHGGLFSEDGVTLDDIRKIERNRQPPDSGPMCDLLWSDPQPQNGRSISKRGVSCQFGPDVTKAFLEENNLDYIIRSHEVKAEGYEVAHGGRCVTVFSAPNYCDQMGNKASYIHLQGSDLRPQFHQFTAVPHPNVKPMAYANTLLQLGMM
notes: PP5 (protein phosphatase 5), human, recombinant; Abnova recombinant proteins often carry a GST tag (surmise); source: bought: Abnova
Take B3: the binding result with human recombinant Hsp90α [2] is “binds”.
